Data taken from the DeepSol protein solubility set.

Experiment: soluble on expression in E. coli; label from the status in PepcDB or PDB records
For “MASIKLYFDKRVNRKDGKFPLKINVTHKRQQALINLGVLLSPDQWDSTKGKVINGPNKSFLNGYISQRVHCAETELLNLRIAGKLDLMTGKQFKEHLQRILLRGKLEEKQEETGCSFVQYYTRFVEGKKNPQTKAVYQYTLDRICRFVDVPDKFRFEDVTYAWLKSFEIHLSETSKVNSISIHMRNIRAVFNDALNTETISCYPFRRFKIKQEATAKRALTPEELVTLRDYPCEEHQKQYVDIFMLIFYLVGINTVDLCRLEKIRNGRIEYRRAKTKKIYNIKVEPEAAEIIERYKGSKYLLNILERYKNYKDYAHRLNENLQEIGSVELVEKVINGKRRRVKKRFPLFPELTVYWARHTWATIAHKIGVSKDVISLALGHEFGCKTTSIYIDYDMEKVDKANRQVLDYLENLK”, the “soluble on expression in E. coli” value was “not soluble”. In the case of “MASISSLGVGSNLPLDQLLTDLTKNEKGRLTPITKQQSANSAKLTAYGTLKSALEKFQTANTALNKADLFKSTVASSTTEDLKVSTTAGAAAGTYKINVTQLAAAQSLATKTTFATTKEQLGDTSVTSRTIKIEQPGRKEPLEIKLDKGDTSMEAIRDAINDADSGIAASIVKVKENEFQLVLTANSGTDNTMKITVEGDTKLNDLLAYDSTTNTGNMQELVKAENAKLNVNGIDIERQSNTVTDAPQGITLTLTKKVTDATVTVTKDDTKAKEAIKSWVDAYNSLVDTFSSLTKYTAVEPGEEASDKNGALLGDSVVRTIQTGIRAQFANSGSNSAFKTMAEIGITQDGTSGKLKIDDDKLTKVLKDNTAAARELLVGDGKETGITTKIATEVKSYLADDGIIDNAQDNVNATLKSLTKQYLSVSNSIDETVARYKAQFTQLDTMMSKLNNTSSYLTQQFTAMNKS”, the “soluble on expression in E. coli” value is reported as “not soluble”. For “MASISTPFPISLHPKTVRSKPLKFRVLTRPIKASGSETPDLTVATRTGSKDLPIRNIPGNYGLPIVGPIKDRWDYFYDQGAEEFFKSRIRKYNSTVYRVNMPPGAFIAENPQVVALLDGKSFPVLFDVDKVEKKDLFTGTYMPSTELTGGYRILSYLDPSEPKHEKLKNLLFFLLKSSRNRIFPEFQATYSELFDSLEKELSLKGKADFGGSSDGTAFNFLARAFYGTNPADTKLKADAPGLITKWVLFNLHPLLSIGLPRVIEEPLIHTFSLPPALVKSDYQRLYEFFLESAGEILVEADKLGISREEATHNLLFATCFNTWGGMKILFPNMVKRIGRAGHQVHNRLAEEIRSVIKSNGGELTMGAIEKMELTKSVVYECLRFEPPVTAQYGRAKKDLVIESHDAAFKVKAGEMLYGYQPLATRDPKIFDRADEFVPERFVGEEGEKLLRHVLWSNGPETETPTVGNKQCAGKDFVVLVARLFVIEIFRRYDSFDIEVGTSPLGSSVNFSSLRKASF”, the “soluble on expression in E. coli” value was “soluble”. In the case of “MASKDAQVTLSRGEQSVKRIKEFNPKKDNFSILLMGIDARPGQSMDKERSDAMVLATFNRKDKSVKLLSIPRDSYVNIPGRGYDKITHAHSLGGRDLSTETVENLLDIPVDYVMEANFSAFKEVVDELGGVPITIKEDYIVRQIKKDTKGKVNLQTGEQTLGGEEALAYVRTRKADTDLKRGERQMEVIKSIINKSKSLTSIPAYDDILDTVGKNVSMNLSLNDAIGLIPFMTSIQTVDTLQLKGSDYQPGKVYYFQLDQENLNEIKQELKQQLDVLEHHHHHH”, the “soluble on expression in E. coli” value is reported as “soluble”. In the case of “MASLNCHDKCSTTTQSDINLKDELLSSTSIECRPGNDLLESLHKEQNRWYSETKTFSDSSQHTGRGFEKYWFCYGIKCYYFVMDRKTWSGCKQTCQISSLSLLKIDNEDELKFLKLLVPSDSYWIGLSYDNKKKDWAWINNGPSKLALNTMKYNIRDGGCMLLSKTRLDNDNCDKSFICICGKRLDKFPH”, the “soluble on expression in E. coli” value is reported as “soluble”. In the case of “MASMTGGQQMGRGSSTSLYKKAGLMPSPMEDIEEILITEEQLKAKVKELGEMITRDYEGKDLVLIGVLKGAIMFMSGLSRAIDLPLSIDFLAVSSYGSSTKSSGIVKIIKDHDIDIEGKDVLIVEDIIDSGLTLAYLRETLLGRKPRSLKICTILDKPERREADVKVDYCGFKIPDKFVVGYGLDYAEKYRNLPFIGVLKPELYK”, the “soluble on expression in E. coli” value is reported as “soluble”. With “MASMTGGQQMGRIPGNSPRMVLLESEQFLTELTRLFQKCRSSGSVFITLKKYDGRTKPIPRKSSVEGLEPAENKCLLRATDGKRKISTVVSSKEVNKFQMAYSNLLRANMDGLKKRDKKNKSKKSKPAQGGEQKLISEEDDSAGSPMPQFQTWEEFSRAAEKLYLADPMKVRVVLKYRHVDGNLCIKVTDDLVCLVYRTDQAQDVKKIEKFHSQLMRLMVAKESRNVTMETE” the “soluble on expression in E. coli” value was “soluble”.
